Data reported in patent US20150210756A1 (NEW YORK UNIVERSITY, published 2015).
Residue numbers refer to the chain shown, from its start.

B1: Luk10 (designed binder)
chain: LPAPKNLVVSRVTEDSARLSWAASENAFVFDSFLIQYQESEKVGEAIVLTVPGSERSYDLTGLKPGTEYTVSIYGVGGKLHNQFEWLSNPLSAIFTT
notes: also called anti-LukD FN3 domain Luk10; not shown: C-terminal poly-histidine tag
B2: Luk9 (designed binder)
chain: LPAPKNLVVSRVTEDSARLSWDRTYSLLNYFDSFLIQYQESEKVGEAIVLTVPGSERSYDLTGLKPGTEYTVSIYGVGGQHPTYESNPLSAIFTT
notes: not shown: C-terminal poly-histidine tag
B3: Luk12 (designed binder)
chain: LPAPKNLVVSRVTEDSARLSWRAKPWAPKFDSFLIQYQESEKVGEAIVLTVPGSERSYDLTGLKPGTEYTVSIYGVKASEKFIESNPLSAIFTT
notes: also called Luk12 anti-LukD FN3 domain; not shown: C-terminal poly-histidine tag
B4: Luk22 (designed binder)
chain: B3 chain with T70A
notes: also called anti-LukD FN3 domain Luk22; not shown: C-terminal poly-histidine tag
B5: Luk11 (designed binder)
chain: B3 chain with K77S, S79I, E80K, K81P, F82G, I83H, E84T
notes: as for B2
B6: Luk8 (designed binder)
chain: LPAPKNLVVSRVTEDSARLSWKRKPWAPIFDSFLIQYQESEKVGEAIVLTVPGSERSYDLTGLKPGTEYTVSIYGVWDHAGPKYEIESNPLSAIFTT
notes: as for B2
B7: Luk21 (designed binder)
chain: B6 chain with K22V, R23T, P28E, I29Y
notes: as for B2
B8: Luk41 (designed binder)
chain: LPAPKNLVVSRVTEDSARLSWTAPDAAFDSFLIQYQESEKVGEAIVLTVPGSERSYDLTGLKPGTEYTVSIYGVSEVPYSEYWFSNPLSAIFTT
notes: as for B2
B9: Luk42 (designed binder)
chain: B8 chain with S75V, E76W, V77G, P78Y, Y79R, S80L, E81T, Y82T, W83E, F84H
notes: as for B2
B10: Luk60 (designed binder)
chain: LPAPKNLVVSRVTEDSARLSWTAPDAAFDSFDIQYWEWWPFGEAIVLTVPGSERSYDLTGLKPGTEYGVIILGVKGGFRSTPLSAIFTT
notes: as for B2
B11: Luk54 (designed binder)
chain: B10 chain with A27V, D32R, Q34E, W36S, F41I, I70V, L72A, F78G, R79Y, T81V
notes: as for B2
B12: Luk57 (designed binder)
chain: B10 chain with D29N, D32Y, Q34E, W36F, W39F, F41A, G68A, L72H, F78Q
notes: as for B2
B13: Luk48 (designed binder)
chain: B10 chain with D32H, Q34E, W36G, F41T, I70L, L72V, T81S
notes: as for B2
B14: Luk50 (designed binder)
chain: B10 chain with D32V, Q34P, W36S, F41V, I70Y, L72V, F78T, R79W, T81A
notes: as for B2
B15: Luk28 (designed binder)
chain: B10 chain with D32A, F41P, F78W, R79Y, T81N
notes: as for B2
B16: Luk49 (designed binder)
chain: LPAPKNLVVSRVTEDSARLSWTAPDAAFDSFAIVYAEHWPAGEAIVLTVPGSERSYDLTGLKPGTEYNVTIPGVKGGKYSDPLSAIFTT
notes: as for B2
B17: Luk43 (designed binder)
chain: LPAPKNLVVSRVTEDSARLSWTAPDAAFDSFLIQYQESEKVGEAIVLTVPGSERSYDLTGLKPGTEYTVSIYGVNSFGRPTLNLFSNPLSAIFTT
notes: as for B2
B18: Luk40 (designed binder)
chain: B17 chain with N75S, S76Y, F77A, R79E, T81L, N83W, L84I, F85Y
notes: as for B2
B19: Luk44 (designed binder)
chain: B17 chain with N75E, S76W, F77L, G78Q, R79Y, P80Y, T81G, L82E, N83T
notes: as for B2
B20: Luk45 (designed binder)
chain: B17 chain with N75A, S76W, F77L, G78T, R79N, P80A, T81Y, L82E, N83W, L84E
notes: as for B2
B21: Luk26 (designed binder)
chain: LPAPKNLVVSRVTEDSARLSWTAPDAAFDSFHIEYAEPWVWGEAIVLTVPGSERSYDLTGLKPGTEYVVFIGGVKGGHNSTPLSAIFTT
notes: also called anti-LukE FN3 domain Luk26; not shown: C-terminal poly-histidine tag
B22: Luk56 (designed binder)
chain: LPAPKNLVVSRVTEDSARLSWTAPDAAFDSFYIQYIELEIGEAIVLTVPGSERSYDLTGLKPGTEYGVFISGVKGGWNSYPLSAIFTT
notes: as for B2
B23: Luk32 (designed binder)
chain: LPAPKNLVVSRVTEDSARLSWYHENAYLLFDSFLIQYQESEKVGEAIVLTVPGSERSYDLTGLKPGTEYTVSIYGVVYDLTPEKRSSNPLSAIFTT
notes: as for B2
B24: Luk29 (designed binder)
chain: LPAPKNLVVSRVTEDSARLSWDEQFVSNFDSFLIQYQESEKVGEAIVLTVPGSERSYDLTGLKPGTEYTVSIYGVFVPWDGFSEINYSNPLSAIFTT
notes: as for B2
B25: Luk58 (designed binder)
chain: LPAPKNLVVSRVTEDSARLSWTAPDAAFDSFDIEYDESAHFGEAIVLTVPGSERSYDLTGLKPGTEYIVFIYGVKGGYASIPLSAIFTT
notes: as for B2
B26: Luk37 (designed binder)
chain: LPAPKNLVVSRVTEDSARLSWTAPDAAFDSFLIQYQESEKVGEAIVLTVPGSERSYDLTGLKPGTEYTVSIYGVVGWPLFIQSNPLSAIFTT
notes: as for B2
B27: Luk38 (designed binder)
chain: LPAPKNLVVSRVTEDSARLSWTAPDAAFDSFLIQYQESEKVGEAIVLTVPGSERSYDLTGLKPGTEYTVSIYGVELIYHGWLDFVFSNPLSAIFTT
notes: also called anti-LukE FN3 domain Luk38; not shown: C-terminal poly-histidine tag
B28: Luk39 (designed binder)
chain: B27 chain with E75R, L76V, I77F, H79F, G80S, W81V, L82E, D83P, F84T, V85W
notes: as for B2
B29: Luk31 (designed binder)
chain: LPAPNNLVVSRVTEDSARLSWDWDKYYTNRFDSFLIQYQESEKVGEAIVLTVPGSERSYDLTGLKPGTEYTVSIYGVLVRDYIRAAEWYSNPLSAIFTT
notes: as for B2
B30: Luk46 (designed binder)
chain: LPAPKNLVVSRVTEDSARLSWTAPDAAFDSFWIHYEESTWAGEAIVLTVPGSERSYDLTGLKPGTEYGVVIVGVKGGLKSHPLSAIFTT
notes: as for B2
B31: Luk30 (designed binder)
chain: LPAPKNLVVSRVTEDSARLSWAFNWNYFAFDSFLIQYQESEKVGEAIVLTVPGSERSYDLTGLKPGTEYTVSIYGVVALNTGNKKSNPLSAIFTT
notes: as for B2
B32: Luk47 (designed binder)
chain: LPAPKNLVVSRVTEDSARLSWTAPDAAFDSFGIQYFETTESGEAIVLTVPGSERSYDLTGLKPGTEYVVFISGVKGGPLSWPLSAIFTT
notes: as for B2
B33: Luk53 (designed binder)
chain: B32 chain with G32T, T38A, T39E, E40A, S41N, V68L, S72V, P78H, L79S, W81L
notes: as for B2
B34: Luk59 (designed binder)
chain: B32 chain with G32D, Q34S, F36N, T38F, T39A, E40W, F70Y, S72H, L79T, W81Y
notes: as for B2
B35: Luk52 (designed binder)
chain: B25 chain with D32W, E34Q, D36G, S38A, A39Q, H40E, Y72T, Y78N, A79K, I81Y
notes: as for B2
B36: Luk55 (designed binder)
chain: B25 chain with D32W, E34Q, D36F, H40G, F41E, I68L, Y72V, Y78V, A79P, I81Y
notes: as for B2
B37: Luk51 (designed binder)
chain: B32 chain with G32Q, Q34H, T38S, T39E, E40P, S41G, S72I, P78W, L79S, W81L
notes: as for B2
B38: Luk27 (designed binder)
chain: LPAPKNLVVSRVTEDSARLSWTAPDAAFDSFPIVYQEWQFYGEAIVLTVPGSERSYDLTGLKPGTEYLVDIYGVKGGSWSYPLSAIFTT
notes: also called anti-LukE FN3 domain Luk27; not shown: C-terminal poly-histidine tag
B39: Luk33 (designed binder)
chain: LPAPKNLVVSRVTEDSARLSWTAPDAAFDSFLIQYQESEKVGEAIVLTVPGSERSYDLTGLKPGTEYTVSIYGVAFIPDEIEFSNPLSAIFTT
notes: as for B2
B40: Luk34 (designed binder)
chain: B39 chain with L61P, A75V, F76V, I77V, D79H, I81F
notes: as for B2
B41: Luk36 (designed binder)
chain: B39 chain with F76D, I77V, I81Y
notes: as for B2
B42: Luk35 (designed binder)
chain: B39 chain with F76H, D79W, I81F, F83W, N85K
notes: as for B2

Each binder was assayed against T1, LukD (S. aureus, UniProt Q2FXB1 27-327) (assay: ELISA after cis-display panning).
T1 construct: also called leukotoxin D
T1 sequence: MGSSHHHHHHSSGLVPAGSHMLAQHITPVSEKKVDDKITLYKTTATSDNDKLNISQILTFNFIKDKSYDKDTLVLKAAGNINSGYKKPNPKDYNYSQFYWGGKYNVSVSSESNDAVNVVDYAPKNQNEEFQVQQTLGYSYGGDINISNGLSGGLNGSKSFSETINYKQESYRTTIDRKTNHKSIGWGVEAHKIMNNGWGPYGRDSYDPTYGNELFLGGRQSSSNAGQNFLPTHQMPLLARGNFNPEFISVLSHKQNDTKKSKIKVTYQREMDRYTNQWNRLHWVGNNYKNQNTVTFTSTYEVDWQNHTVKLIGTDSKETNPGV
B1: binds. B2: binds. B3: binds. B4: binds. B5: binds. B6: binds. B7: binds.

Each binder was assayed against T2, LukE (S. aureus, UniProt Q2FXB0 24-306) (assay: ELISA after cis-display panning).
T2 construct: also called leukotoxin E
B8: binds. B9: binds. B10: binds. B11: binds. B12: binds. B13: binds. B14: binds. B15: binds. B16: binds. B17: binds. B18: binds. B19: binds. B20: binds. B21: binds. B22: binds. B23: binds. B24: binds. B25: binds. B26: binds. B27: binds. B28: binds. B29: binds. B30: binds. B31: binds. B32: binds. B33: binds. B34: binds. B35: binds. B36: binds. B37: binds. B38: binds. B39: binds. B40: binds. B41: binds. B42: binds.
